Reference: EP2586797A2

Target: Abeta42 beta amyloid peptide (UniProt P05067)
Assay: competition ELISA, NS0 supernatant titrated against 0.25 ug/ml biotinylated mouse 6E10 (mouse MDT-2007) on coated beta amyloid; IC50 normalised to mouse 6E10 (=1; <1 improved)

Sequence of Abeta42 beta amyloid peptide (P05067 672-713 limits assumed): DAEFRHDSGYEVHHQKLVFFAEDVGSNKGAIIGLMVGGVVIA

Binder | fold difference in IC50 relative to mouse 6E10 [fold]
Composite human antibody variant VH1/VK3 (antibody, human IgG1, V domains shown) VH: EVQLVQSGAELKKPGASVKVSCTASGFNIKDTYIHWVRQAPGQRLEWIGRFDPVNVNTRYDSRFRGRATITSDASTNTAYMELSSLRSEDTAVYYCSRSYYNGRRRFTYWGQGTLVTVSS VL: DIVMTQSPSSLTASVGDRVTITCKASQSLLSSGNQKNYLTWYQQKPGQPPKLLIYWASIRESGVPDRFSGSGSGTDFTLTISSLQAEDVAVYYCQNDYNYPFTFGQGTKLEIK | 1.93
Composite human antibody variant VH2/VK3 (antibody, human IgG1, V domains shown) VH: EVQLVQSGAEVKKPGASVKVSCTASGFNIKDTYIHWVRQARGQRLEWIGRFDPVNVNTRYDSRFRGRATITSDASTNTAYMELSSLRSEDTAVYYCSRSYYNGRRRFTYWGQGTLVTVSS VL: DIVMTQSPSSLTASVGDRVTITCKASQSLLSSGNQKNYLTWYQQKPGQPPKLLIYWASIRESGVPDRFSGSGSGTDFTLTISSLQAEDVAVYYCQNDYNYPFTFGQGTKLEIK | 0.96
Composite human antibody variant VH3/VK3 (antibody, human IgG1, V domains shown) VH: QVQLVQSGAEVKKPGASVKVSCTASGFNIKDTYIHWVRQARGQRLEWIGRFDPVNVNTRYDSRFRGRATITSDASTNTAYMELSSLRSEDTAVYYCSRSYYNGRRRFTYWGQGTLVTVSS VL: DIVMTQSPSSLTASVGDRVTITCKASQSLLSSGNQKNYLTWYQQKPGQPPKLLIYWASIRESGVPDRFSGSGSGTDFTLTISSLQAEDVAVYYCQNDYNYPFTFGQGTKLEIK | 1.57
Composite human antibody variant VH1/VK1 (antibody, V domains shown) VH: EVQLVQSGAELKKPGASVKVSCTASGFNIKDTYIHWVRQAPGQRLEWIGRFDPVNVNTRYDSRFRGRATITSDASTNTAYMELSSLRSEDTAVYYCSRSYYNGRRRFTYWGQGTLVTVSS VL: DIVMTQSPDSLTVSLGERATINCKASQSLLSSGNQKNYLTWYQQKPGQPPKLLIYWASIRESGVPDRFTGSGSGTFFTLTISSLQAEDVAVYYCQNDYNYPFTFGQGTKLEIK | 0.78
Composite human antibody variant VH2/VK2 (antibody, human IgG1, V domains shown) VH: EVQLVQSGAEVKKPGASVKVSCTASGFNIKDTYIHWVRQARGQRLEWIGRFDPVNVNTRYDSRFRGRATITSDASTNTAYMELSSLRSEDTAVYYCSRSYYNGRRRFTYWGQGTLVTVSS VL: DIVMTQSPSSLTASVGDRVTITCKASQSLLSSGNQKNYLTWYQQKPGQPPKLLIYWASIRESGVPDRFTGSGSGTFFTLTISSLQAEDVAVYYCQNDYNYPFTFGQGTKLEIK | 1.1

Second part, the binder after the results:

fold difference in IC50 relative to mouse 6E10 [fold] | Binder
1.02 | Composite human antibody variant VH5/VK3 (antibody, human IgG1, V domains shown) VH: QVQLVQSGAEVKKPGASVKVSCTASGFNIKDTYIHWVRQARGQRLEWIGRFDPVNVNTRYDSRFRGRVTITSDASTSTAYMELSSLRSEDTAVYYCSRSYYNGRRRFTYWGQGTLVTVSS VL: DIVMTQSPSSLTASVGDRVTITCKASQSLLSSGNQKNYLTWYQQKPGQPPKLLIYWASIRESGVPDRFSGSGSGTDFTLTISSLQAEDVAVYYCQNDYNYPFTFGQGTKLEIK
1.36 | Composite human antibody variant VH4/VK3 (antibody, human IgG1, V domains shown) VH: QVQLVQSGAEVKKPGASVKVSCTASGFNIKDTYIHWVRQARGQRLEWIGRFDPVNVNTRYDSRFRGRVTITSDASTNTAYMELSSLRSEDTAVYYCSRSYYNGRRRFTYWGQGTLVTVSS VL: DIVMTQSPSSLTASVGDRVTITCKASQSLLSSGNQKNYLTWYQQKPGQPPKLLIYWASIRESGVPDRFSGSGSGTDFTLTISSLQAEDVAVYYCQNDYNYPFTFGQGTKLEIK
